Target: T1, HuNoV GII.2 VLP (VP1 of HuNoV GII.2 OSN201926, baculovirus-expressed virus-like particle) (human norovirus GII.2 (OSN201926), …)
T1 construct: VP1 gene cloned from HuNoV GII.2 (OSN201926), expressed by the baculovirus method as a VLP and purified by ultracentrifugation; also called HuNoV GII.2 VP1; HuNoV GII.2 VLP1
T1 chain: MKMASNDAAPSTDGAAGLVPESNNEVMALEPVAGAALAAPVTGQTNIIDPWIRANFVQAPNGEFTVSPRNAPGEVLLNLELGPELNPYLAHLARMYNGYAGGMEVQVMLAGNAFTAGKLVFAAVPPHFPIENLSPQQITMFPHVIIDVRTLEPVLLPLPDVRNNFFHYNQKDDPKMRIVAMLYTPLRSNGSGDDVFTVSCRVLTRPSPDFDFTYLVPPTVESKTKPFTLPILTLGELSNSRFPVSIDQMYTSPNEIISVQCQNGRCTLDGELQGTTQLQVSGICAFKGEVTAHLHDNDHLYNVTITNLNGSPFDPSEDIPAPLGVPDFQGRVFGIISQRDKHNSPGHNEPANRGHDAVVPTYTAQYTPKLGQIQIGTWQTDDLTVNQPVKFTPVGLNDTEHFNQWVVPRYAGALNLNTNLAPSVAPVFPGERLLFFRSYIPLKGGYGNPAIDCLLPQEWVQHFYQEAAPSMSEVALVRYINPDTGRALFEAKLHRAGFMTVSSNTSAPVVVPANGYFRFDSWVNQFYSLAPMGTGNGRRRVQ
Assay: ELISA of E. coli periplasm fractions on HuNoV GII.2 VLP; clones selected by binding to the antigen

Binder | binding result
YGI-1F4 (VHH, Llama VHH expressed in E. coli from pMEK222 (FLAG tag and His tag), purified on Co resin; also called VHH antibody YGI-1F4; not shown: FLAG tag and His tag from vector pMEK222; not clear whe) VHH: EVQLVESGGGLVQAGGSLRLSCGASGRTFSNYAMGWFRQAPGKEREFVAAINWSGDKTDYADSVKGRFTISRDNVKNFVALQMNSLKPEDTAVYYCATEGGFPQFGSNLKRTSFGLWGQGTQVTVSS | binds
YGI-1B6 (VHH, Llama VHH expressed in E. coli from pMEK222 (FLAG tag and His tag), purified on Co resin; also called VHH antibody YGI-1B6; not shown: FLAG tag and His tag from vector pMEK222; not clear whe) VHH: EVQLVESGGGLVQAGGSLRLSCAASGRTFSNYFMGWFRQAPGKEREFVAAISWSGGSTYYTDSVKGRFTISRDNAKNTMYLQMNTLKPEDTAVYYCAAEKASLSGPSYGLGLDFSRYDYWGQGTQVTVSS | binds
YGI-1H3 (VHH, Llama VHH expressed in E. coli from pMEK222 (FLAG tag and His tag), purified on Co resin; also called VHH antibody YGI-1H3; not shown: FLAG tag and His tag from vector pMEK222; not clear whe) VHH: EVQLVESGGGLVQAGGSLRLSCVVSGRSFSSLAMGWFRQAPGNQREFVAAISWSGGSSYYGDSVKGRFTISRDDAKNTVYLQMDSLKPEDTADYYCATEIVPKYDTAAYYKSQGAFGSWGQGTQVTVSS | binds
YGI-1E10 (VHH, Llama VHH expressed in E. coli from pMEK222 (FLAG tag and His tag), purified on Co resin; also called VHH antibody YGI-1E10; not shown: FLAG tag and His tag from vector pMEK222; not clear whe) VHH: EVQLVESGGGLVQAGGSLRLSCTAPKSIASFNSVGWYRQAPGKQRELVATITRSRTTNYADSARGRFTISRDNTKNMMFLQMNSLKPEDTAVYYCNARDIVPVFQTYWGQGTRVTVSS | binds
YGI-1C5 (VHH, Llama VHH expressed in E. coli from pMEK222 (FLAG tag and His tag), purified on Co resin; also called VHH antibody YGI-1C5; not shown: FLAG tag and His tag from vector pMEK222; not clear whe) VHH: EVQLVESGGGLVQTGGSLRLSCAASGLTFSNYAMGWFRQAPGKEREFVATINWSSSRTIYADSVKGRFTISREDAKNTVYLQMNSLKPEDTAVYYCAAEGGAPRWTTGTRRNDYRYWGQGTQVTVSS | binds

Source: patent WO2023182244A1 (dated 2023)
